Measured values from patent publication US20110076265A1 (POMONA RICERCA S R L, published 2011).

Tests used:
[1] = biological target: Hemagglutinin of influenza B virus B/Lee/40 (influenza B virus B/Lee/40, UniProt P03460 16-584); assay: immunofluorescence on fixed, permeabilized infected cells
[2] = biological target: T1, H3-subtype hemagglutinin of influenza A virus A/Aichi/2/68 (H3N2) (influenza A virus A/Aichi/2/68 (H3N2), UniProt P03437 17-566); assay: as above
T1 construct: also called A/Aichi/2/68 (ATCC VR-547)

[3] = biological target: H1-subtype hemagglutinin of influenza A virus A/Wilson-Smith/33 (influenza A virus A/Wilson-Smith/33 …, UniProt P03454 18-565); assay: ELISA, sequential dilutions of purified Fab on infected cell lysates
[4] = biological target: HA protein (H1-subtype hemagglutinin) of influenza A virus A/PR/08/1934 (influenza A virus A/PR/08/1934 (H1N1), UniProt P03452 18-565); assay: immunofluorescence on fixed, permeabilized infected cells, Fab49 at 100 µg/ml

B1: Fab49 (human monoclonal Fab fragment produced by bacterial clone INF49) (Fab, V domains shown)
VH: LESGGGLVQPGGSLRLSCAASGITFSSYAMSWVRQAPGKGLEWVSTVNSGGGSTYYGDSVRGRFTISRDNSKSTLYLQLNSLRAEDTAIYYCAKDKGRPIFGLVTPSYYMDVWGNGT
VL: ELTQSPSSLSASVGDSVTITCRTSERISTYLNWYQQKPGKAPRLLVSGASTLQGGVPSRFSGSGSGTAFTLTINSLQPEDFATYYCQQSYSTPLTFGGGT
[1]
  binding result: no binding (tested: 100 µg/ml)
[2]
  binding result: no binding (tested: 100 µg/ml)
[3]
  binding result: binds
[4]
  binding result: binds
